Test results from the Human Domainome abundance scans (Beltran et al. 2025).

B1: Syntaxin-binding protein 4, residues 493 to 538; numbered along this chain, Q6ZWJ1 (parent)
chain: LDMDCLPYGWEEAYTADGIKYFINHVTQTTSWIHPVMSVLNLSRSE
B2: KAT8 regulatory NSL complex subunit 2, residues 28 to 91; numbered along this chain, Q9H9L4 (parent)
chain: CAFTHRPCSHPRLEGQEFCIKHILEDKNAPFKQCSYISTKNGKRCPNAAPKPEKKDGVSFCAEH

Variants of: B1
Assay: abundance fitness (aPCA) (normalised: wild type 0, dead -1); higher = more abundant; growth selection in yeast, the domain comes from the species named
Details: Homo sapiens

Abundance fitness, by site and new letter:
I19: V 0.054
P35: A -1.01
M37: T 0.146
L6: R -0.644
D17: P -0.867
I23: P -0.4
S43: M -0.75, L -0.698
S45: E 0.092
Q28: G 0.294, F -0.422, K -0.027
E11: K -0.535
Y21: T -0.93
G18: M -0.846
E46: K -0.478
H34: V -1
R44: M -0.292, V -0.147
S31: R -0.818
H25: L -0.931, P -0.236
T30: R -0.719
D4: N -0.098, R -0.545
A16: K 0.211, I -0.716
D2: E -0.206, S -0.478
T15: A -0.801
I33: S 0.1, T -0.075
Y8: Q -0.119
Y14: M -0.614
L42: K 0.16
E12: P -0.795
V36: G 0.528
C5: R -0.18
T29: H -0.847

Variants of: B2
Assay: as above
Details: Homo sapiens

Abundance fitness, by site and new letter:
C1: A -0.343, D -0.896, E -0.322, G -0.604, I -0.287, K -0.155, L -0.886, M -0.576, N -0.615, R -0.545, S -0.358, T -0.89, V -0.865, W -0.837, Y -0.802
A2: C -0.08, D -0.388, E -0.522, F -0.513, G -0.101, H -0.231, I -0.198, K -0.153, L -0.152, M -0.014, N 0.023, P -0.421, Q -0.186, R -0.138, S -0.238, T -0.103, V -0.235, W -0.541
F3: A -0.318, C -0.14, D -0.255, E -0.285, G -0.154, H -0.026, I 0.033, K -0.287, L -0.332, M -0.172, N -0.312, P -0.639, Q -0.28, R -0.174, T -0.083, W -0.161, Y -0.151
T4: A -0.404, C -0.102, D -0.163, E -0.305, F -0.181, G -0.394, H -0.128, I -0.114, K -0.378, L -0.53, M -0.788, N -0.201, P -0.512, Q -0.494, R -0.399, S -0.193, V -0.468, W -0.388, Y -0.15
H5: A -0.068, C -0.112, E 0.017, F -0.096, G -0.017, I -0.084, K -0.083, L -0.068, M -0.012, N -0.212, P -0.146, Q 0.011, R -0.01, S -0.144, T 0.034, V -0.023, W -0.193, Y -0.151
R6: A -0.167, C -0.032, F -0.016, G -0.068, I -0.034, K -0.032, N -0.133, P -0.047, Q -0.072, S -0.055, T -0.088, V -0.081, W -0.118, Y -0.06
P7: A -0.061, C -0.201, D 0.003, E -0.063, F -0.121, G -0.063, H -0.133, I -0.096, K -0.123, L -0.101, M -0.05, N -0.204, Q -0.072, R -0.003, S -0.14, V -0.1, W -0.148, Y -0.149
C8: A -0.883, D -0.646, E -0.711, F -1.45, G -0.742, H -0.854, I -0.847, K -0.664, L -1.31, M -0.937, N -0.641, P -0.874, Q -0.832, R -1.02, S -0.891, V -0.949, W -1.24, Y -1.07
S9: C -0.123, D -0.121, E -0.191, F 0.008, G -0.13, H -0.119, I 0.016, K -0.343, L -0.113, M -0.135, N -0.313, P -0.174, Q -0.115, R -0.186, T -0.193, V -0.065
H10: A -0.126, C -0.015, D -0.28, E -0.038, F -0.076, G -0.01, I -0.013, K -0.113, L -0.103, M -0.047, P -1.12, Q -0.078, R -0.064, S -0.042, T -0.11, V -0.149, W -0.127, Y -0.041
P11: A -0.032, C -0.296, D -0.068, E -0.004, G -0.133, H -0.234, I -0.298, K -0.067, L -0.18, M -0.092, N -0.282, R -0.092, S -0.162, V -0.197, W -0.555
R12: A -0.055, D -0.93, E -0.674, F -0.77, G -0.652, H -0.308, I -0.234, K -0.325, L -0.27, M -0.47, N -0.279, P -0.147, Q -0.561, S -0.106, T -0.103, V -0.066, W -1.22, Y -0.787
L13: A -0.187, C -0.365, D -0.501, E -0.334, F -0.324, G -0.423, H -0.215, I -0.145, K -0.24, M -0.048, N -0.53, P -0.86, Q -0.176, R -0.465, S -0.331, T -0.308, V -0.127, W -0.315, Y -0.277
E14: A -0.107, C -0.168, D -0.152, F -0.252, H -0.262, I -0.219, L -0.12, M -0.034, N -0.334, P -0.141, Q -0.155, R -0.258, S -0.147, T -0.129, V -0.098, W -0.396
G15: A -0.284, C -0.403, D -0.127, E -0.219, F -0.406, H -0.263, M -0.199, N -0.134, P -0.543, Q -0.134, R -0.228, T -0.428, V -0.972, W -0.592, Y -0.706
Q16: C -0.198, D -0.408, E -0.261, I -0.497, K -0.143, L -0.054, M -0.146, N -0.25, P -1.11, R -0.089, S -0.091, T -0.15, V -0.38, W -0.226, Y -0.187
E17: A -0.207, C -0.112, D -0.098, F -0.19, G -0.252, H -0.129, I -0.036, K -0.15, L -0.116, M -0.041, N -0.023, P -0.137, Q -0.077, R -0.216, S -0.105, T -0.051, V -0.102, W -0.26, Y -0.106
F18: A -0.572, C -0.334, D -0.547, E -0.622, G -0.563, H -0.454, I -0.678
